Assay results from PMC7993993.

Target: T1, His6-PomZ (M. xanthus) (UniProt Q1DEM0)
T1 sequence: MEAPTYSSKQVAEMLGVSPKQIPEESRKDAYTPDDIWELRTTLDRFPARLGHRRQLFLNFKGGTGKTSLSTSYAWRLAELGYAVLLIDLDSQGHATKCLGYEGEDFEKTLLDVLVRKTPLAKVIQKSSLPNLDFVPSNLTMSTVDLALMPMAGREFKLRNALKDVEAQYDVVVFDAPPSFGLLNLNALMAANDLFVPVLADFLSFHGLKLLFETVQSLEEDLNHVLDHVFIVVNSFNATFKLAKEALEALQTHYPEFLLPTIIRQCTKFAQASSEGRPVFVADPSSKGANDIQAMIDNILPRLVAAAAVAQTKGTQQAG

His6-PomZ ATPase activity (NADH-coupled assay, 1 mM ATP, 32°C) with DNA, PomX^NPEP peptide up to 15 µM, 4 µM His6-PomZ: 27 ATP hr^−1
Binder: MKKAFEQNVSRAKPRLRLGALT [PomX^NPEP peptide]
